Data on 3 molecules can be found in patent US7067277 (H LUNDBECK A S, dated 2006).

Some targets named below: human MCH receptor (human, UniProt Q99705 1-353); human NPFF2 receptor (human, UniProt Q9Y5X5 1-522); human 5HT7 receptor (human, UniProt P34969 1-479).
Holding throughout (assay): cell-based or functional assay
The target of experiment [1] is human dopamine D3 receptor (human, UniProt P35462 1-400).
Experiment [2] addresses T1, human α1A adrenergic receptor (human, UniProt P35348 1-466).
T1 sequence (looked up): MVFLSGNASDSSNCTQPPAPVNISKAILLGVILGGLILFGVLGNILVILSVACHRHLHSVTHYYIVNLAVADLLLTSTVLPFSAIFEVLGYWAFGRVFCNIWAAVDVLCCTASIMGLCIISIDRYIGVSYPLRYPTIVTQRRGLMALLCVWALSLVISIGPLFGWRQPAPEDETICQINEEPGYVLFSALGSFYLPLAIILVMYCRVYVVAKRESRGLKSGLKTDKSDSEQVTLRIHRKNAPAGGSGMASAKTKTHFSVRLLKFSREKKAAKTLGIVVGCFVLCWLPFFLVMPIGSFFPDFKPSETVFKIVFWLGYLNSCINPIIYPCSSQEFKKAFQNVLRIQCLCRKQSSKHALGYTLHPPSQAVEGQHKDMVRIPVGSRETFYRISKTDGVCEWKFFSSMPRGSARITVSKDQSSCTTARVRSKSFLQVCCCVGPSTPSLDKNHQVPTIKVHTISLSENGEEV

The target of experiment [3] is T2, human α2A adrenergic receptor (human, UniProt P08913 1-465).
T2 sequence (looked up): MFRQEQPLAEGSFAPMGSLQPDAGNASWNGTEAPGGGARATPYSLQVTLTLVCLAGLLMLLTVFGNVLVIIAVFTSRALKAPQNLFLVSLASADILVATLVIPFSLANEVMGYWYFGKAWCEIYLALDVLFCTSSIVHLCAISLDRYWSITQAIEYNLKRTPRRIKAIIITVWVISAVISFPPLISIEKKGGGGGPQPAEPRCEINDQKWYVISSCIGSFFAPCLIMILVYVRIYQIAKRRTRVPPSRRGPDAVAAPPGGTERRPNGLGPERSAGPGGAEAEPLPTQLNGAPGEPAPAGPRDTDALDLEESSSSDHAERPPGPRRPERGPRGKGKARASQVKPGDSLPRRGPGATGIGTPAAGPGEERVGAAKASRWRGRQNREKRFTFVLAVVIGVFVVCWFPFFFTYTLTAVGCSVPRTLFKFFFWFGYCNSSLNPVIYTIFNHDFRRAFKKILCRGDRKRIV

Another experiment deals with T3, human Y1 receptor (human, UniProt P25929 1-384).
T3 sequence (looked up): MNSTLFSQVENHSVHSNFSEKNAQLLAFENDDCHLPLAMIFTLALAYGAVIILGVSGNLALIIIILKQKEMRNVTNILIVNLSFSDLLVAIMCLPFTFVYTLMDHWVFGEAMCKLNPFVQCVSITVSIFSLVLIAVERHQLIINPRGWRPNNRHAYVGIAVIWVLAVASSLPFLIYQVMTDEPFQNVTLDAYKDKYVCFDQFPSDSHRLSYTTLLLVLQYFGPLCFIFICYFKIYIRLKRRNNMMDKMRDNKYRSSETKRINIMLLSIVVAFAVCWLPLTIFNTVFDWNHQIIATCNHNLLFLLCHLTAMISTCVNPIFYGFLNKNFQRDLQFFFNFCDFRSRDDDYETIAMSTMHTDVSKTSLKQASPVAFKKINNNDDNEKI

The target in experiment [4] is human β2 adrenergic receptor (human, UniProt P07550 1-413).
Experiment [5] deals with T4, human α2C adrenergic receptor (human, UniProt P18825 1-462).
T4 sequence (looked up): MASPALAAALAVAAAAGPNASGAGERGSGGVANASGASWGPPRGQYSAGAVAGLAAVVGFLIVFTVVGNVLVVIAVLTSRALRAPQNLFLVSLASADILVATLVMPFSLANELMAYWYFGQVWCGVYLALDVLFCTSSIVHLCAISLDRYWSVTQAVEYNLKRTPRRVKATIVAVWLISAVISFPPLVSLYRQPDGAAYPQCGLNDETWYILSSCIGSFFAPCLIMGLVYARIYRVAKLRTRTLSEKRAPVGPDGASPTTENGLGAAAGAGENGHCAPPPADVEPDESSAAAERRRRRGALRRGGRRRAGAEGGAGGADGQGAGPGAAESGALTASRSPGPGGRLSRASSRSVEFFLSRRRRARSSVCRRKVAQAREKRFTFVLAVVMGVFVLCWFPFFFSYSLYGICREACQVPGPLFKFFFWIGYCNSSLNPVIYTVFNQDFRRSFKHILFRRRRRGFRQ

For the next experiment, the target named is T5, rat GALR1 receptor (rat, UniProt Q62805 1-346).
T5 sequence (looked up): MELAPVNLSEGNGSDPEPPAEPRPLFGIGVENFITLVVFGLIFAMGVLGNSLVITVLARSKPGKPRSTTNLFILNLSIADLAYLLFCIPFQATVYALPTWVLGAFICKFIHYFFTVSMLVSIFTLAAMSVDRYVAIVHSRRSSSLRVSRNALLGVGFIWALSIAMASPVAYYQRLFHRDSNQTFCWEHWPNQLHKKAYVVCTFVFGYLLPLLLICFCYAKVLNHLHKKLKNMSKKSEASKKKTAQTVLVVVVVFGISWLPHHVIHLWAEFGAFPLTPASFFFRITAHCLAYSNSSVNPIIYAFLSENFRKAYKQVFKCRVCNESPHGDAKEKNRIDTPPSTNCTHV

The target in the next experiment is T6, human Y2 receptor (human, UniProt P49146 1-381).
T6 sequence (looked up): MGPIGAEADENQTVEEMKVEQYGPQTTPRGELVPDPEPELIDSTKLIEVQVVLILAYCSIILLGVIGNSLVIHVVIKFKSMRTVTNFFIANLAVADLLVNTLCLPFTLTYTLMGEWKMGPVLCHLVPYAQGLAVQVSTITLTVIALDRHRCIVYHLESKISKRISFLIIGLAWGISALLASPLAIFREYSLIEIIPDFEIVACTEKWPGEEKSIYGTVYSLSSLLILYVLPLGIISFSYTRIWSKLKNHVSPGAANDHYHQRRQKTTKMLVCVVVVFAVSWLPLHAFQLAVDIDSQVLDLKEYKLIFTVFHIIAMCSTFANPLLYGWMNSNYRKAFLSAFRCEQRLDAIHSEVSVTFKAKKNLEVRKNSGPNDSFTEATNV

Chain of human MCH receptor (Q99705 whole entry): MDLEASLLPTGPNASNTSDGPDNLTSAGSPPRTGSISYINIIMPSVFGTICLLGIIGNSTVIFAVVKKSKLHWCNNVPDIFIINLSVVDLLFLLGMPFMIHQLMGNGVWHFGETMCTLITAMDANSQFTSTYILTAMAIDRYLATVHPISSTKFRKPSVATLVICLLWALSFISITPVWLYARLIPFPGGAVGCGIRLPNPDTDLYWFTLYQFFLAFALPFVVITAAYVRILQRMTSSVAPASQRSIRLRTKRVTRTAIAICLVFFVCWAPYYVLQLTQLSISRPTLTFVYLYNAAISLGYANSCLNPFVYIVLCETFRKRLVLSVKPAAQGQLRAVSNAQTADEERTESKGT
Chain of human dopamine D3 receptor (P35462 whole entry): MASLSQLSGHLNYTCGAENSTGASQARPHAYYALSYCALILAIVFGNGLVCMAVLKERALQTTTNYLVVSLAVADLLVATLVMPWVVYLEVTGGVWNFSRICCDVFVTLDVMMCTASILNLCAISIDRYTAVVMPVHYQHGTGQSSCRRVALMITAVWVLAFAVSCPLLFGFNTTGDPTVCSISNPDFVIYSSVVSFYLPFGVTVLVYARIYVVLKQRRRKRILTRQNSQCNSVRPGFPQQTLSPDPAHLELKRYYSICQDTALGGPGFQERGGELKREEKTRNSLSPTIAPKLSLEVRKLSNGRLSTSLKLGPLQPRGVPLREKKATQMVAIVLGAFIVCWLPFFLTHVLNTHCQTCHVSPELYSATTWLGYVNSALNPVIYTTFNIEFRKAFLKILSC
Chain of human 5HT7 receptor (P34969 whole entry): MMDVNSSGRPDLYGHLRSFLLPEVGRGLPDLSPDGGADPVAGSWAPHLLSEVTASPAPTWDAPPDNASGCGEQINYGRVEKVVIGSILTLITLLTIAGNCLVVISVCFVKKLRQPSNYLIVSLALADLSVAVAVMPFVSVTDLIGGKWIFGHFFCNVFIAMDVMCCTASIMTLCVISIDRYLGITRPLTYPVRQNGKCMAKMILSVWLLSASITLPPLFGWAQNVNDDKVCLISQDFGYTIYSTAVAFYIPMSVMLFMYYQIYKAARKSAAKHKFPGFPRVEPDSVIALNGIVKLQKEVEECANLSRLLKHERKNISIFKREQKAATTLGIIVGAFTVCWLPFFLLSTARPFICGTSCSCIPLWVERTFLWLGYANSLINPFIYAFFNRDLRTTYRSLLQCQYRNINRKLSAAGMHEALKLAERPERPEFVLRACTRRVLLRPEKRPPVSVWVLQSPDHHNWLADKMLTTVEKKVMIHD
Chain of human NPFF2 receptor (Q9Y5X5 whole entry): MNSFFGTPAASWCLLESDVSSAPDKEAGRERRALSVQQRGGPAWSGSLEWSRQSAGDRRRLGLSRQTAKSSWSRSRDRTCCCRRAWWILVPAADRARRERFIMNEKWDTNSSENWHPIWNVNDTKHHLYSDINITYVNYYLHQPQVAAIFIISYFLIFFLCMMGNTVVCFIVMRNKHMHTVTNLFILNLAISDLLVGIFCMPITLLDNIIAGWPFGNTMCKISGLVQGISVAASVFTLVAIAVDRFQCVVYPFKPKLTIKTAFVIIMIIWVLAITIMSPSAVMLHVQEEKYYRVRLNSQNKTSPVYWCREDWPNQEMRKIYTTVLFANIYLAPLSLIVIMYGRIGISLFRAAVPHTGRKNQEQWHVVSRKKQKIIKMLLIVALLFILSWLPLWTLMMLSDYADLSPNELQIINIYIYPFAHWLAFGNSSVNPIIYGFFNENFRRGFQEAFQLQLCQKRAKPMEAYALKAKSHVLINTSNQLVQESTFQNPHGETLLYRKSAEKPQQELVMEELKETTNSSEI

B1: Human Gαq/z5 (Ala→Ser substitution at position 171) (other)
chain: MTLESIMACCLSEEAKEARRINDEIERQLRRDKRDARRELKLLLLGTGESGKSTFIKQMRIIHGSGYSDEDKRGFTKLVYQNIFTAMQAMIRAMDTLKIPYKYEHNKAHAQLVREVDVEKVSAFENPYVDAIKSLWNDPGIQECYDRRREYQLSDSTKYYLNDLDRVADPSYLPTQQDVLRVRVPTTGIIEYPFDLQSVIFRMVDVGGQRSERRKWIHCFENVTSIMFLVALSEYDQVLVESDNENRMEESKALFRTIITYPWFQNSSVILFLNKKDLLEEKIMYSHLVDYFPEYDGPQRDAQAAREFILKMFVDLNPDSDKIIYSHFTCATDTENIRFVFAAVKDTILQLNLKYIGLC
As to B1, in [1], the “max Ca2+ signal, COS-7, FLIPR; agonist DA” value (“max Ca2+ signal … agonist DA” below) is 0 fluorescence units. Besides, the “max Ca2+ signal, COS-7, FLIPR; agonist NE” value (from here on “max Ca2+ signal … agonist NE”) in experiment [2] was 14200 fluorescence units; in experiment [3], 10900 fluorescence units; in [4], 128 fluorescence units; in experiment [5], 6110 fluorescence units. Moreover, in the experiment with human MCH receptor, the “max Ca2+ signal, COS-7, FLIPR; agonist MCH” value (shortened to “max Ca2+ signal … agonist MCH”) turned out to be 783 fluorescence units. Also, the “max Ca2+ signal, COS-7, FLIPR; agonist NPY” value (“max Ca2+ signal … agonist NPY” for short) with human Y1 receptor came to 1880 fluorescence units; with human Y2 receptor, 10900 fluorescence units. The “max Ca2+ signal, COS-7, FLIPR; agonist GAL” value (“max Ca2+ signal … agonist GAL” below) with rat GALR1 receptor was determined as 82 fluorescence units. The “max Ca2+ signal, COS-7, FLIPR; agonist NPFF” value (shortened to “max Ca2+ signal … agonist NPFF”) in the experiment with human NPFF2 receptor is 20000 fluorescence units. Further, the “max Ca2+ signal, COS-7, FLIPR; agonist 5HT” value (from here on “max Ca2+ signal … agonist 5HT”) in the experiment with human 5HT7 receptor came to 90 fluorescence units.

B2: C. elegans Gαq/z5 (other)
chain: MACCLSEEAREQKRINQEIEKQLQRDKRNARRELKLLLLGTGESGKSTFIKQMRIIHGQGYSEEDKRAHIRLVYQNVFMAIQSMIRAMDTLDIKFGNESEELQEKAAVVREVDFESVTSFEEPYVSYIKELWEDSGIQECYDRRREYQLTDSAKYYLSDLRRLAVPDYLPTEQDILRVRVPTTGIIEYPFDLEQIIFRMVDVGGQRSERRKWIHCFENVTSIMFLVALSEYDQVLVECDNENRMEESKALFRTIITYPWFTNSSVILFLNKKDLLEEKILYSHLADYFPEYDGPPRDPIAAREFILKMFVDLNPDADKIIYSHFTCATDTENIRFVFAAVKDTILQHNLKYIGLC
Turning to B2, the “max Ca2+ signal … agonist DA” value in experiment [1] amounted to 0 fluorescence units. For the same molecule, the “max Ca2+ signal … agonist NE” value in experiment [2] came to 9820 fluorescence units; in experiment [3], 7580 fluorescence units; in experiment [4], 1840 fluorescence units; in experiment [5], 4140 fluorescence units. Further, in the experiment with human MCH receptor, the “max Ca2+ signal … agonist MCH” value turned out to be 2700 fluorescence units. Also, the “max Ca2+ signal … agonist NPY” value was determined as 7720 fluorescence units in the experiment with human Y1 receptor and 7710 fluorescence units with human Y2 receptor. Moreover, the “max Ca2+ signal … agonist GAL” value with rat GALR1 receptor came to 3090 fluorescence units. Besides, in the experiment with human NPFF2 receptor, the “max Ca2+ signal … agonist NPFF” value was 7570 fluorescence units. The “max Ca2+ signal … agonist 5HT” value with human 5HT7 receptor was 166 fluorescence units.

B3: C. elegans Gαq/z9 (other)
chain: MACCLSEEAREQKRINQEIEKQLQRDKRNARRELKLLLLGTGESGKSTFIKQMRIIHGQGYSEEDKRAHIRLVYQNVFMAIQSMIRAMDTLDIKFGNESEELQEKAAVVREVDFESVTSFEEPYVSYIKELWEDSGIQECYDRRREYQLTDSAKYYLSDLRRLAVPDYLPTEQDILRVRVPTTGIIEYPFDLEQIIFRMVDVGGQRSERRKWIHCFENVTSIMFLVALSEYDQVLVECDNENRMEESKALFRTIITYPWFTNSSVILFLNKKDLLEEKILYSHLADYFPEYDGPPRDPIAAREFILKMFVDLNPDADKIIYSHFTCATDTENIRFVFAAVKDTILQNNLKYIGLC
Take B3: the “max Ca2+ signal … agonist DA” value in [1] was determined as 121 fluorescence units. In addition, the “max Ca2+ signal … agonist NE” value in experiment [2] was 6600 fluorescence units; in [3] it was 3040 fluorescence units; in experiment [4] it was 1700 fluorescence units; in [5], 3870 fluorescence units. In addition, the “max Ca2+ signal … agonist MCH” value in the experiment with human MCH receptor is 3330 fluorescence units. Moreover, the “max Ca2+ signal … agonist NPY” value was 6730 fluorescence units with human Y1 receptor and 5390 fluorescence units in the experiment with human Y2 receptor. For the same molecule, the “max Ca2+ signal … agonist GAL” value with rat GALR1 receptor turned out to be 5950 fluorescence units. In the experiment with human NPFF2 receptor, the “max Ca2+ signal … agonist NPFF” value is 4580 fluorescence units. Besides, the “max Ca2+ signal … agonist 5HT” value with human 5HT7 receptor is 129 fluorescence units.
